Data on one substance can be found in patent US20170275356A1.

This assay has as its target human IL-23 (human) (UniProt P29460). Briefly: cell-based or functional assay.

Chain of human IL-23 (human) (chain, as listed by the source limits assumed, chain 1 of 2): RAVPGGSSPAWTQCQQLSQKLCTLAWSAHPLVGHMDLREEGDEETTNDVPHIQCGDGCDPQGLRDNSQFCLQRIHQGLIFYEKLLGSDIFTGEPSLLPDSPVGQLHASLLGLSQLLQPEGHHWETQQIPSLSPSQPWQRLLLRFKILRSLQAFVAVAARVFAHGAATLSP
Chain of human IL-23 (human) (P29460 23-328 limits assumed, chain 2 of 2): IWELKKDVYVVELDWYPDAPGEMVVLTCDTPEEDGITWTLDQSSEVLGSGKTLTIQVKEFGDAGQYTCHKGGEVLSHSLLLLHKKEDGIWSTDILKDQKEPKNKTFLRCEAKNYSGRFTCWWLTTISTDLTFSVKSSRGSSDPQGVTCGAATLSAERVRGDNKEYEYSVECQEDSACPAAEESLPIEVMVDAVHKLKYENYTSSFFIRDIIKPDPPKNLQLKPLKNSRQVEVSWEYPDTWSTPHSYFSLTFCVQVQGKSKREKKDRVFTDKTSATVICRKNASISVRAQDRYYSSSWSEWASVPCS

For the substance isotype control antibody, the Ct value, murine IL-17A mRNA in skin injected with human IL-23 (in vivo neutralization) was found to be 35.4 Ct and the Ct value, murine IL-17F mRNA in skin injected with human IL-23 (in vivo neutralization) was found to be 31.6 Ct.
